B1: MMP-2: matrix metalloproteinase-2, intact protein (protein)
chain: APSPIIKFPGDSTPKTDKELAVQYLNKYYGCPKDNCNLFVLKDTLKKMQKFFGLPETGDLDQNTIETMKKPRCGNPDVANYNFFPRKPKWEKNHITYRIIGYTPDLDPETVDDAFARAFKVWSDVTPLRFNRINDGEADIMINFGRWEHGDGYPFDGKDGLLAHAFAPGPGIGGDSHFDDDELWTLGEGQVVRVKYGNADGEYCKFPFWFNGKEYNSCTDAGRNDGFLWCSTTKDFDADGKYGFCPHESLFTMGGNGDGQPCKFPFKFQGQSYDQCTTEGRTDGYRWCGTTEDYDRDKKYGFCPETAMSTVGGNSEGAPCVFPFIFLGNKYDSCTSAGRNDGKLWCASTSSYDDDRKWGFCPDQGYSLFLVAAHEFGHAMGLEHSEDPGALMAPIYTYTKNFRLSQDDIKGIQELYEVSPDVEPGPGPGPGPGPRPTLGPVTPELCKHDIVFDGVAQIRGEIFFFKDRFMWRTVNPRGKPTGPLLVATFWPDLPEKIDAVYESPQDEKAVFFAGNEYWVYTASNLDRGYPKKLTSLGLPPDVQRIDAAFNWGRNKKTYIFSGDRYWKYNEEKKKMELATPKFIADSWNGVPDNLDAVLGLTDSGYTYFFKDQYYLQMEDKSLKIVKIGKISSDWLGC
B2: CTMMP-2(2-4): GST fusion protein of chicken MMP-2 C-terminal residues 445-637 (protein)
chain: LCKHDIVFDGVAQIRGEIFFFKDRFMWRTVNPRGKPTGPLLVATFWPDLPEKIDAVYESPQDEKAVFFAGNEYWVYTASNLDRGYPKKLTSLGLPPDVQRIDAAFNWGRNKKTYIFSGDRYWKYNEEKKKMELATPKFIADSWNGVPDNLDAVLGLTDSGYTYFFKDQYYLQMEDKSLKIVKIGKISSDWLGC
modifications: left off: a dimerising Fc or GST

Assays:
[1] = system: αvβ3-expressing CS-1 cells; assay: Inhibition of cell attachment assay; type: cell-based, hamster
Procedure: As one means to determine integrin receptor specificity of the antagonists of this invention, inhibition of cell attachment assays were performed as described below.
Briefly, CS-1 hamster melanoma cells lacking expression of αvβ3 and αvβ5 were first transfected with an plasmid for expressing the […] as previously described by Filardo et al., J. Cell Biol., 130:441-450 (1995). Specificity of potential αvβ3 antagonists was determined by the ability to block the binding of αvβ3-expressing CS-1 cells to VN or laminin coated plates. As an example of a typical assay, the wells were first coated with 10 μg/ml substrate overnight. After rinsing and blocking with 1% heat-denatured BSA in PBS at room temperature for 30 minutes, peptide 85189 (SEQ ID NO: 15) over a concentration range of 0.0001 μM to 100 μM, was separately mixed with CS-1 cells for applying to wells with a cell number of 50, 000 cells/well. After a 10-15 minute incubation at 37° C., the solution containing the cells and peptides was discarded. The number of attached cells was then determined following staining with 1% crystal violet. Cell associated crystal violet was eluted by the addition of 100 microliters (μl) of 10% acetic acid. Cell adhesion was quantified by measuring the optical density of the eluted crystal violet at a wave length of 600 nm.

αvβ3 = target: T1, αvβ3 (Homo sapiens, UniProt P05106+P06756); assay: Solid phase receptor binding assay (iodinated MMP-2, labeled fusion proteins)
T1 construct: selected purified integrins were separately immobilized in Titertek microtiter wells
T1 sequence (P06756 31-889 limits assumed): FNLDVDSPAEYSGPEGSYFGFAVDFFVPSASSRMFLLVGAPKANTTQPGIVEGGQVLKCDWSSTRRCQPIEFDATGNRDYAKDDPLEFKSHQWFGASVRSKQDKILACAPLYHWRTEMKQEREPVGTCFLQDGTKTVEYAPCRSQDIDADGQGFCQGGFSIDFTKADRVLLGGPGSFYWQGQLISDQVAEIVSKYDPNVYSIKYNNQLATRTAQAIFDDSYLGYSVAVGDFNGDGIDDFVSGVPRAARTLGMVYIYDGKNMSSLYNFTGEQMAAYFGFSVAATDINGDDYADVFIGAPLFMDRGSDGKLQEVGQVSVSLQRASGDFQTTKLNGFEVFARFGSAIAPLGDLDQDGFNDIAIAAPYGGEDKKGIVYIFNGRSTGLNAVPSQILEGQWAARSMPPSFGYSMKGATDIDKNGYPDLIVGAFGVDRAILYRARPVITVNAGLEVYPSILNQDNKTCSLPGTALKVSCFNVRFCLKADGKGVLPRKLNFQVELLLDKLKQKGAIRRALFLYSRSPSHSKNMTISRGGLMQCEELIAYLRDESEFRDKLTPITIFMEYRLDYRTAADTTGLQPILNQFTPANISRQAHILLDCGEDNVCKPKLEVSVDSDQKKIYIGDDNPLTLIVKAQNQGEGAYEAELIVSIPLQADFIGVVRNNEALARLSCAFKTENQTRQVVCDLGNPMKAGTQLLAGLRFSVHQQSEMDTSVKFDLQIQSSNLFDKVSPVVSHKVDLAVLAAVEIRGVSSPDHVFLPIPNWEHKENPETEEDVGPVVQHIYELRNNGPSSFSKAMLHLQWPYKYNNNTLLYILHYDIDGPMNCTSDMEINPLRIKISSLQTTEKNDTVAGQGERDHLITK
T1 sequence (P06756 891-1048 partner limits assumed): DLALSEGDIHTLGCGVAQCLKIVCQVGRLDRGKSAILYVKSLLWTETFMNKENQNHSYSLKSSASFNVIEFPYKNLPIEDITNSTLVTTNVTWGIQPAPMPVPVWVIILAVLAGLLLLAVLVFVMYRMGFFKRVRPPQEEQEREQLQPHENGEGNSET
T1 sequence (P05106 27-788): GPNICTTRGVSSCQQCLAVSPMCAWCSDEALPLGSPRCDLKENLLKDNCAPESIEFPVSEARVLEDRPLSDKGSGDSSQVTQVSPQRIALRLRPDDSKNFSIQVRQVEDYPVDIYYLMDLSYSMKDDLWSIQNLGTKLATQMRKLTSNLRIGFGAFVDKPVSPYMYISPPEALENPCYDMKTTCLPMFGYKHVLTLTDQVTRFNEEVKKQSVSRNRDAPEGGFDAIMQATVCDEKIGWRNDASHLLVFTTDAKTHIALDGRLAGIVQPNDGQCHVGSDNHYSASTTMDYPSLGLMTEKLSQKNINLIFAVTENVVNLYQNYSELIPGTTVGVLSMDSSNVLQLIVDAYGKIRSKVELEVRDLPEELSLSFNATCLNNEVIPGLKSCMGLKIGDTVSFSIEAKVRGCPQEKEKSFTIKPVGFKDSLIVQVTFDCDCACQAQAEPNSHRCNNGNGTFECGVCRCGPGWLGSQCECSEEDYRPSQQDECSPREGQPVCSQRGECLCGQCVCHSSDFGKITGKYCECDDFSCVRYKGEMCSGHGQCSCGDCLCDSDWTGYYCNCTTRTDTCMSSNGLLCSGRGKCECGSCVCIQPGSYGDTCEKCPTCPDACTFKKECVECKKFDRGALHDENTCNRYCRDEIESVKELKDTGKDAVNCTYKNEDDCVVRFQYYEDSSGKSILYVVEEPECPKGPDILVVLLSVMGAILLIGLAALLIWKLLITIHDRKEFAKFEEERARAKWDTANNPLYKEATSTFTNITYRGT
Procedure: In addition, the ability of peptides to inhibit the binding of either MMP-2 or VN to immobilized αvβ3 was assessed with peptides 69601 (SEQ ID NO: 6) and 66203 (SEQ ID NO: 5).
Specificity of receptor interaction with MMP-2-derived antagonists was confirmed with binding and inhibition of binding solid phase assays. […] In addition, the binding of labeled GST2-4 was competed by unlabeled GST2-4.

αIIbβ3 = target: T2, αIIbβ3 (Homo sapiens, UniProt P05106+P08514); assay: as above
T2 construct: selected purified integrins were separately immobilized in Titertek microtiter wells

[2] = system: bFGF-induced angiogenesis; assay: CAM assay, growth factor-induced angiogenesis, intravenous application; type: in vivo, chick; settings: 50 μg fusion protein; after 48 and 72 hours
Procedure: J. Pathol., 79:597 (1975). CAMs were prepared from chick embryos for subsequent induction of angiogenesis and inhibition thereof as described in Examples 4 and 5, respectively. Ten day old chick embryos were obtained from McIntyre Poultry (Lakeside, Calif.) and incubated at 37° C. with 60% humidity. A small hole was made through the shell at the end of the egg directly over the air sac with the use of a small crafts drill (Dremel, Division of Emerson Electric Co. Racine Wis.). A second hole was drilled on the broad side of the egg in a region devoid of embryonic blood vessels determined previously by candling the egg. […] A 1.0 centimeter (cm)×1.0 cm square window was cut through the shell over the dropped CAM with the use of a small model grinding wheel (Dremel). The small window allowed direct access to the underlying CAM.
Angiogenesis was induced by placing a 5 millimeter (mm)×5 mm Whatman filter disk (Whatman Filter paper No.1) saturated with Hanks Balanced Salt Solution (HBSS, GIBCO, Grand Island, N.Y.) or HBSS containing 150 nanograms/milliliter (ng/ml) recombinant basic fibroblast growth factor (bFGF) (Genzyme, Cambridge, Mass.) on the CAM of a 10-day chick embryo in a region devoid of blood vessels and the windows were latter sealed with tape. In other assays, 125 ng/ml bFGF was also effective at inducing blood vessel growth. For assays where inhibition of angiogenesis ws evaluated with intravenous injections of antagonists, angiogenesis was first induced with 1-2 μg/ml bFGF in fibroblast growth medium. Angiogenesis was monitored by photomicroscopy after 72 hours. CAMs were snap frozen, and 6 um cryostat sections were fixed with acetone and stained by immunofluorescence as described in Example 3C with 10 μg/ml of either anti-β1 monoclonal antibody CSAT or LM609.
For CAM preparations in which angiogenesis was induced with 1-2 μg/ml bFGF as previously described, synthetic peptides 69601 (control) and 66203 (SEQ ID NO: 5) were separately intravenously injected into CAM preparations 18 hours after bFGF induction of angiogenesis. The preparations were maintained for an additional 36-40 hours after which time the number of branch points were determined as previously described.
In other assays, peptide 85189 (SEQ ID NO: 15) was evaluated for inhibiting bFGF-induced angiogenesis in the CAM assay over a dosage range of 10 μg/embryo to 300 μg/embryo. The assay was performed as previously described.
In still further assays, peptide 85189 was compared to peptides 69601 and 66203 for anti-angiogenesis activity. The assay was performed as described above with the exception that 50 μg peptide were used.
The effectiveness of the different salt formulations of peptide 85189 was also evaluated in similar bFGF-induced CAM assays. The peptides were used at 100 μg/embryo. […] Untreated CAMs, labeled as “no cytokine” had approximately […] as many branch points as that seen with bFGF treatment, respectively 70 versus 190.
With the above-described protocol, the effect of MMP-2 fusion proteins, CTMMP-2(2-4), also referred to as CTMMP-2(445-467) and CTMMP-2(10-1), also referred to as CTMMP-2(274-637) was also evaluated. The assay was performed as previously described with the exception that 50 μg of fusion protein was administered to the bFGF-treated embryos. The effect of fusion protein treatment was assessed at 24 hours, 48 hours and 72 hours.
The 10 day old CAM preparation was used as previously described in Example 5A. Twenty-four hours after bFGF-induced angiogenesis was initiated, the organic peptidomimetics referred to as compounds 16 (81218), 17 (87292) and 18 (87293) were separately intravenously injected into the CAM preparation in a volume of 100 μl at a concentration of 1 mg/ml (100 μg/embryo) in 20% tetraglycol-PBS at pH 7.0. In parallel assays, compounds 7 (96112), 9 (99799), 10 (96229), 12 (112854) and 14 (96113) were similarly evaluated. […]

CS-1 tumor (β3-negative) = assay: CS-1 tumor growth in CAM; type: in vivo, chick; settings: 50 μg intravenously after 24 hours of tumor growth; mass after 6 days; versus CTMMP-2(10-1) or PBS
Procedure: A CS-1 tumor (β3-negative) was prepared in a CAM as described above. After 24 hours of tumor growth, a composition of MMP-2 fragment, designated CTMMP-2(2-4) and prepared as described in Example 2A, was administered intraveneously at 50 μg fragment in 100 μl of PBS. After 6 days, the tumor was evaluated for mass. Tumors treated with CTMMP-2(2-4) were reduced in growth rate by about 50% when compared to the growth rate of control tumors treated with CTMMP-2(10-1) or with PBS control.

Row | Molecule | inhibition of β3-expressing CS-1 cell adhesion to laminin [1] | inhibition of β3-expressing CS-1 cell adhesion to vitronectin [1] | bound iodinated MMP-2 on immobilized αvβ3 (αvβ3) | bound iodinated MMP-2 on immobilized αIIbβ3 (αIIbβ3) | competition of labeled GST2-4 binding by unlabeled protein (αvβ3) | inhibition of binding of iodinated MMP-2 to αvβ3 (αvβ3; FIG. 8) | binding of 125I-labeled fusion protein to αvβ3 (αvβ3; FIG. 9) | inhibition of bFGF-induced angiogenesis by fusion protein [2] | reduction in tumor growth rate (CS-1 tumor (β3-negative))
1 | B1 | but not laminin | inhibited | 300 cpm | approximately 10 CPM | – | – | – | – | –
2 | B2 | but not laminin | inhibited | – | – | competed | inhibited the binding of iodinated MMP-2 | bound | almost completely inhibited | about 50%

From patent US20040063790A1, “Methods for inhibition of angiogenesis” (The Scripps Research Institute, priority 1996, published 2004)
